Experimental data: US20110014182A1 (published 2011)
Substitutions are numbered along the chain they refer to.

B1: humanised de-immunised construct H48L17 (antibody, name in Kabat numbering, V domains shown)
VH: QVQLVQSGAEVKEPGASVKVSCKGSGFNIHVYYVHWLRQLPEKGLEWIGRIDPENGETIYTPKFQDKATLTVDTSTDTAYMELSSLRSEDTAVYYCVSSGYWGQGTLVTVSS
VL: DIVMTQSPLSNPVTPGEPASISCRSSKSLLHRNGITYLYWYLQKPGQSPQLLIYQMSHLASGVPDRFSSSGSGTDFTLKISRVEAEDVGVYYCAQNLELWTFGQGTKVEIK
B2: humanised de-immunised construct H49L17 (antibody, name in Kabat numbering, V domains shown)
VH: B1 VH with H30K, V31T
VL: B1 VL
B3: humanised antibody H11L2 (antibody, human IgG1, kappa, name in Kabat numbering)
heavy: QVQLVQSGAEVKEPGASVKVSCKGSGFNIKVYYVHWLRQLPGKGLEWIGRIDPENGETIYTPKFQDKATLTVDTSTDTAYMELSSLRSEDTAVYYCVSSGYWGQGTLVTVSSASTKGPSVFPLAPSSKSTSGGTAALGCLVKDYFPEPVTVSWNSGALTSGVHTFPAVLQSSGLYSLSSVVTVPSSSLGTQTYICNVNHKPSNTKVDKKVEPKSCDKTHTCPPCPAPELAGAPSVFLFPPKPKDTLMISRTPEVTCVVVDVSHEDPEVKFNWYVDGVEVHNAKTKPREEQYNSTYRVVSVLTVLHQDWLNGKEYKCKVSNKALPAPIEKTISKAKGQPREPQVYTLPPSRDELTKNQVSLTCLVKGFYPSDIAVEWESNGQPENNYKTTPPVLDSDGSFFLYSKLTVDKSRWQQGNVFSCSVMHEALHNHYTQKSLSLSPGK
light: DIVMTQSPLSLPVTPGEPASISCRSSKSLLHRNGITYLYWYLQKPGQSPQLLIYQMSNLASGVPDRFSSSGSGTDFTLKISRVEAEDVGVYYCAQNLELWTFGQGTKVEIKRTVAAPSVFIFPPSDEQLKSGTASVVCLLNNFYPREAKVQWKVDNALQSGNSQESVTEQDSKDSTYSLSSTLTLSKADYEKHKVYACEVTHQGLSSPVTKSFNRGEC
notes: Human IgG1 Fc mutated, human kappa
B4: humanised antibody H11L12 (antibody, human IgG1, kappa, name in Kabat numbering)
heavy: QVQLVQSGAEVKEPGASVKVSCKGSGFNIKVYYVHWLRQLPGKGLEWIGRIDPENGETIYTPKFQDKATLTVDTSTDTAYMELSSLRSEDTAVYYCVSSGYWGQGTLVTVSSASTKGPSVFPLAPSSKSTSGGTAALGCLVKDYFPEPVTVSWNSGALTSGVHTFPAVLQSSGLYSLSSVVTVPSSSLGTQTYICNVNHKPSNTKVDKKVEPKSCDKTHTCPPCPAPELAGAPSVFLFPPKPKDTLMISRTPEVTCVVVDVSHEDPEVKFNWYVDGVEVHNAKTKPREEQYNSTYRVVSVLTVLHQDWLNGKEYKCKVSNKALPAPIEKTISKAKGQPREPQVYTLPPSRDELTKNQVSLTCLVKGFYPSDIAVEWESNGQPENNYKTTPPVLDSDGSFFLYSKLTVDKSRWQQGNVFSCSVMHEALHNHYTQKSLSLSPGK
light: B3 light with L11N, S48P, S69G
B5: humanised antibody H11L13 (antibody, human IgG1, kappa, name in Kabat numbering)
heavy: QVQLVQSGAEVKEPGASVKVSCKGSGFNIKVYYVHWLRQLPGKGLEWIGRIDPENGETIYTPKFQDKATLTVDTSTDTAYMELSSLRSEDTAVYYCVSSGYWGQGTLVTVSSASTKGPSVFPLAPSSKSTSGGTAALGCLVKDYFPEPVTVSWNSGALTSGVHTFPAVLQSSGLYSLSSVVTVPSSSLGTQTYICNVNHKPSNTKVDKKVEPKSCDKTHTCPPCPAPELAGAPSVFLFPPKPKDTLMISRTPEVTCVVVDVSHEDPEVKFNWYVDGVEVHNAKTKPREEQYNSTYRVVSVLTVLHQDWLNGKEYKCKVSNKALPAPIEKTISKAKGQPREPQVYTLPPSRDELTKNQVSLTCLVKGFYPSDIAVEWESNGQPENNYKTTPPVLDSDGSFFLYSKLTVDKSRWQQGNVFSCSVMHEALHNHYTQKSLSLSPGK
light: B3 light with P8A, S48P, S69G
B6: humanised antibody H11L10 (antibody, human IgG1, kappa, name in Kabat numbering)
heavy: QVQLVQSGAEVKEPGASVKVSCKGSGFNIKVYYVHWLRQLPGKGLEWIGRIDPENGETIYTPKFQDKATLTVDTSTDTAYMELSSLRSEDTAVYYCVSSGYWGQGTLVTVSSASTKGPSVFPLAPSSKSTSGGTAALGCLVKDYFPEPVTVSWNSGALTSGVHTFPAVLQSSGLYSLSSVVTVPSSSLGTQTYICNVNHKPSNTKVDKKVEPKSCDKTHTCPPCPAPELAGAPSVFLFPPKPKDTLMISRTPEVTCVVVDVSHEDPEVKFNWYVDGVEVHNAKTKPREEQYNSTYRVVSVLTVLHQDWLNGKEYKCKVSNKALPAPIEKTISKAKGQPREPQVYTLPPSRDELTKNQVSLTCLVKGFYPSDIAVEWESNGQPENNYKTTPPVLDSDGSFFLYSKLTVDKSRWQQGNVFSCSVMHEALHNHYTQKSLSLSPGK
light: B3 light with P8A
B7: humanised VL variant L4 in combination with H11 (antibody, human IgG1, kappa, name in Kabat numbering, V domains shown)
VH: B1 VH with H30K, E42G
VL: DIVMTQSPLSLPVTPGEPASISCRSSKSLLHRNGITYLYWYLQKPGQSPQLLIYQMSNLASGVPDRFTGSGSGTDFTLKISRVEAEDVGVYYCAQNLELWTFGQGTKVEIKR
notes: Kabat numbering
B8: humanised VL variant L7 in combination with H11 (antibody, human IgG1, kappa, name in Kabat numbering, V domains shown)
VH: B1 VH with H30K, E42G
VL: B7 VL with S48P, T68S, G69S
notes: Kabat numbering
B9: humanised VL variant L8 in combination with H11 (antibody, human IgG1, kappa, name in Kabat numbering)
heavy: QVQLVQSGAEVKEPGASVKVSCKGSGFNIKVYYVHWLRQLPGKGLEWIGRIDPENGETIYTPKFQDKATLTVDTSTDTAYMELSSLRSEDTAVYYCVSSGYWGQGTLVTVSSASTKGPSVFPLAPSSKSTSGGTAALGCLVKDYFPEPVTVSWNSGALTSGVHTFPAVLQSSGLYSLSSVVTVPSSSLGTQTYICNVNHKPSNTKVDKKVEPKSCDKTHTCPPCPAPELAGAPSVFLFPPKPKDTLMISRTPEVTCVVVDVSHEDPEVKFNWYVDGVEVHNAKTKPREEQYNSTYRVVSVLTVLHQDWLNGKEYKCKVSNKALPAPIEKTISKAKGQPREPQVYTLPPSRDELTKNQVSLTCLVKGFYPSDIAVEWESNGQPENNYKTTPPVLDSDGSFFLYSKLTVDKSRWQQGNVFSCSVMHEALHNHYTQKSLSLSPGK
light: B3 light with S48P, S68T, S69G
notes: Kabat numbering
B10: humanised VL variant L6 in combination with H11 (antibody, human IgG1, kappa, name in Kabat numbering)
heavy: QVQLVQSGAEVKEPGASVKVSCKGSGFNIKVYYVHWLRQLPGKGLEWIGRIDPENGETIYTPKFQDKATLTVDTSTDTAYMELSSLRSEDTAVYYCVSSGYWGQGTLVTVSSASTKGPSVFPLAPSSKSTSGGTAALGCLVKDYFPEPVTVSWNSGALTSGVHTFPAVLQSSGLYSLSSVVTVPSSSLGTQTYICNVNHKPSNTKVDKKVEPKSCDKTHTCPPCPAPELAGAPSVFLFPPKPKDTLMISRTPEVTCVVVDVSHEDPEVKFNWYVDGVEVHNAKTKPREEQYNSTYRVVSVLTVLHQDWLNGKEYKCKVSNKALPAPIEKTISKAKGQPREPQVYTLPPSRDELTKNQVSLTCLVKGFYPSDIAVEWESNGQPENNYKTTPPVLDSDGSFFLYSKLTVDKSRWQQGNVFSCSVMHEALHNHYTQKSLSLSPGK
light: B3 light with S48P, S68T, S69G, Q104G, V108L
notes: Kabat numbering
B11: humanised VH variant H25 in combination with L2 light chain (antibody, human IgG1, kappa, name in Kabat numbering, V domains shown)
VH: B1 VH with E13K, H30K, L40A, E42G, K67R, A68V, V72E
VL: B7 VL with T68S, G69S
notes: Kabat numbering
B12: humanised VH variant H28 in combination with L2 light chain (antibody, human IgG1, kappa, name in Kabat numbering)
heavy: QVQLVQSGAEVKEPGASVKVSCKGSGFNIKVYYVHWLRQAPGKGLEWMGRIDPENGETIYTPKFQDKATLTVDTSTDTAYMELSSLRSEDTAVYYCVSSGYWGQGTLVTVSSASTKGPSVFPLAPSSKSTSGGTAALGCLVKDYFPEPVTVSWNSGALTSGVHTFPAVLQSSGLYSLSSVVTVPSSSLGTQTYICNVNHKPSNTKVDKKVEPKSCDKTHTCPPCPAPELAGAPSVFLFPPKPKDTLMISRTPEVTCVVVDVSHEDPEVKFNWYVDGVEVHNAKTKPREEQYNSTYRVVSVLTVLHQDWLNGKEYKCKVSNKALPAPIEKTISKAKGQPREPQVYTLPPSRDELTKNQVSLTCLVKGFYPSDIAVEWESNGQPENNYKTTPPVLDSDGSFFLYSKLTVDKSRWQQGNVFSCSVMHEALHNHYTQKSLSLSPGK
light: B3 light
notes: Kabat numbering
B13: humanised VH variant H29 in combination with L2 light chain (antibody, human IgG1, kappa, name in Kabat numbering)
heavy: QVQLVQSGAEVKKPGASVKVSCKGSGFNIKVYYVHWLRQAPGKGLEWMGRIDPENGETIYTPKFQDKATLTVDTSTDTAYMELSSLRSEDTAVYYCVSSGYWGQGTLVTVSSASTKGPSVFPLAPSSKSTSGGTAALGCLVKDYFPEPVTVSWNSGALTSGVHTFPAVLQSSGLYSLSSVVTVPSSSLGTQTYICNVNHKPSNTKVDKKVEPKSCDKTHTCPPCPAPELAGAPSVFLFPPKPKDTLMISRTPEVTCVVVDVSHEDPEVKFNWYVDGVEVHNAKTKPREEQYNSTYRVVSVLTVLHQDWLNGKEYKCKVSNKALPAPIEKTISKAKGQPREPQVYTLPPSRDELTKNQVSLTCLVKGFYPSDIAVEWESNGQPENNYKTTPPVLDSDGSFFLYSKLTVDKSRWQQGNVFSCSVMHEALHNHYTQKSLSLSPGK
light: B3 light
notes: Kabat numbering
B14: humanised VH variant H23 in combination with L2 light chain (antibody, human IgG1, kappa, name in Kabat numbering, V domains shown)
VH: B1 VH with E13K, H30K, L40A, E42G, K67R, A68V, L70M, V72E
VL: B7 VL with T68S, G69S
notes: Kabat numbering
B15: humanised VH variant H24 in combination with L2 light chain (antibody, human IgG1, kappa, name in Kabat numbering, V domains shown)
VH: QVQLVQSGAEVKKPGASVKVSCKGSGFNIKVYYVHWLRQAPGKGLEWMGRIDPENGETIYTPKFQDRVTMTEDTSSNTAYMELSSLRSEDTAVYYCVSSGYWGQGTLVTVSS
VL: B7 VL with T68S, G69S
notes: Kabat numbering
B16: humanised VH variant H26 in combination with L2 light chain (antibody, human IgG1, kappa, name in Kabat numbering, V domains shown)
VH: B15 VH with M48I, M70L, N77D
VL: B7 VL with T68S, G69S
notes: Kabat numbering
B17: humanised VH variant H27 in combination with L2 light chain (antibody, human IgG1, kappa, name in Kabat numbering, V domains shown)
VH: B1 VH with H30K, L40A, E42G, I48M, L70M
VL: B7 VL with T68S, G69S
notes: Kabat numbering
B18: humanised VH variant H21 in combination with L2 light chain (antibody, human IgG1, kappa, name in Kabat numbering, V domains shown)
VH: B15 VH with A40L, S76T, N77D
VL: B7 VL with T68S, G69S

Biological target: T1, human β-amyloid (1-40) peptide (human, UniProt P05067 672-711)
T1 construct: domain: β-amyloid (1-40); Used free in solution, coated on plates, or N- or C-terminally biotinylated, as told under assay; also called Aβ peptide (1-40); Aβ1-40
T1 sequence (P05067 672-711 limits assumed): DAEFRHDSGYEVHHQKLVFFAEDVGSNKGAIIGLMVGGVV
Assay: SPR (Biacore T100), antibody captured on anti-human IgG, beta amyloid (1-40), 37°C
Description: Anti-human IgG (Biacore BR-1008-39) was coupled to a CM5 biosensor chip by primary amine coupling. The anti-beta amyloid antibodies were captured on this surface. Beta amyloid (1-40) was then passed over at 256, 64, 16, 4 and 1 nM, with a 0 nM (ie buffer alone passed over the captured antibody surface) used for double referencing. […] The data was analysed using the 1:1 model inherent to the T100. The run was carried out at 25° C. and 37° C. using HBS-EP as the running buffer.
From this panel some constructs were also assessed for binding kinetics at physiological temperature.

Kd [nM] | Binder
4.72 | B1
4.21 | B2

Biological target: T1, human β-amyloid (1-40) peptide
Assay: competition ELISA, antibody pre-incubated with biotinylated β-amyloid 1-40; competitor immobilised mouse 6F6; Exp 1
Description: (§1) 6F6c and humanised antibodies H11L2, H11L9, H11L10, H11L12 and H11L13 were assessed for their ability to bind Aβ1-40 peptide in solution and inhibit the interaction of human Aβ1-40 peptide with mouse 6F6 monoclonal antibody in a competition ELISA. A constant concentration of biotinylated β-amyloid 1-40 was pre-incubated with serial diluted amounts of humanised 6F6 antibody variants. The mixture including complexed and free amyloid was then added to wells containing immobilised mouse 6F6 monoclonal antibody and incubated for 15 minutes at room temperature. Plates were washed and the amount of free β-amyloid that was still available for binding the immobilised parental 6F6 monoclonal antibody was then detected using streptavidin-HRP conjugate.
(§2) All humanised variants were able to effectively compete for binding to 6F6 parental monoclonal antibody with very similar IC50 values.

IC50 [µg/mL] | Binder
0.862 | B3
0.561 | B4
0.616 | B5
0.622 | B6

Biological target: T1, human β-amyloid (1-40) peptide
Assay: ELISA on human Aβ peptide (1-40), in combination with H11

binding result | Binder
binds | B7
binds | B8
binds | B9
binds | B10

Biological target: T1, human β-amyloid (1-40) peptide
Assay: competition ELISA, antibody pre-incubated with biotinylated β-amyloid 1-40; competitor immobilised mouse 6F6; Exp 2
Description: as §1, §2

IC50 [µg/mL] | Binder
0.578 | B3
0.549 | B4
0.531 | B5

Biological target: T1, human β-amyloid (1-40) peptide
Assay: SPR (Biacore T100), antibody captured on protein A, human β-amyloid 1-40 at 256-2 nM, 25°C, mean of three experiments
Description: The affinity of selected heavy and light chain combinations was determined using a Biacore T100 instrument. Three independent experiments were performed using humanised antibody immobilised via protein A surface Biacore chips and injection of β-amyloid 1-40 peptides. The chimeric molecule of 6F6 served as a reference molecule. For this Protein A was immobilised on a CM5 chip by primary amine coupling in accordance with manufactures recommendations. Anti-β-amyloid antibodies were captured on this surface and after a period of stabilisation human β-amyloid 1-40 was passed over at concentrations 256-2 nM in halving dilutions. A buffer injection over the captured antibody surface was used to double reference the data set in accordance with Biacore best practice. […] The work was carried out in HBS-EP at 25° C. Results are summarised in Table 13 as the mean of all three experiments.

Kd [nM] | Binder
9.57 | B3
6.95 | B4
7.41 | B5
5.57 | B6

Biological target: T1, human β-amyloid (1-40) peptide
Assay: ELISA on human Aβ peptide (1-40)

binding result | Binder
binds | B11
binds | B12
binds | B13
binds | B14
binds | B15
binds | B16
binds | B17
binds | B18
